Experimental data as given in patent publication US10881709B2, “Immune system modulators and compositions” (Canimguide Therapeutics AB, priority 2015, dated 2021).

Tested on: PBMCs from healthy control person
Test: PBMC activation (CD69/CD71, flow cytometry) in RPMI plus 10% human AB serum
Assay type: cell-based
Conditions: 40 μg/mL, 24 hours, healthy PBMCs
Method: The activity of peptide P28R (SEQ ID NO: 2) and modifications of P28R was studied in a human ex vivo model using PBMCs in short term cultures, 24 or 48 hours. Effects of P28R and modifications of P28R on PBMCs from a healthy control person were studied. Activation was measured as percentage of cells with enhanced marker CD69 using flow cytometry. PBMCs were incubated with the peptides (40 μg/mL) for 24 hours in RPMI plus 10% human AB serum.
As observed in Example 37, P28R (SEQ ID NO: 2) can stimulate PBMCs from healthy controls in short term cultures when RPMI plus 10% normal human AB serum is used as culture medium. Truncations of P28R were also assessed for their ability to activate PBMCs. PBMCs were incubated with the peptides (40 μg/mL) for 24 hours in RPMI plus 10% human AB serum. PBMC activation was measured as percent cells with enhanced expression of either CD69 (FIG. 42A) or CD71 (FIG. 42B) using flow cytometry. Two experiments were performed for each peptide.
Effects of modified peptides on activation of PBMCs from healthy control person were assessed. Activation was determined as percentage of cells with enhanced marker CD69 or CD71 using flow cytometry. PBMCs were incubated with the peptides (40 μg/mL) for 48 hours in RPMI plus 10% human AB serum.

Substance	PBMC activation, enhanced CD69 or CD71
KKLDTFFPKLSLFTER [SEQ ID NO: 329]	did not activate

Same assay, conditions: 40 μg/mL, 24 hours, healthy control person

Substance	PBMC activation, cells with enhanced CD69
KSLDTFFVKLSLFTER [SEQ ID NO: 510]	did not stimulate
KKLDTFFVKLSLFTFR [SEQ ID NO: 571]	did not stimulate
KKLDTVMVKLQLMTER [compound 30680]	induced activation
KKLDTFFVNLSLFTER [SEQ ID NO: 518]	did not stimulate
KKLDTFFVDLSLFTER [SEQ ID NO: 569]	did not stimulate

Same assay, conditions: 40 μg/mL, 48 hours, healthy control person

Substance	PBMC activation, enhanced CD69 and CD71
RKLDTFFVKLSLFTERRR [compound 32814]	stimulatory effect in short term cultures similar to that of P28R

Target: P3028 (SEQ ID NO: 185) (Homo sapiens, UniProt P02768)
Test: PEPSCAN ELISA (rampo assay): binding of His-tagged P3028 to immobilised peptides
Conditions: truncations, deletions, glycine substitutions
Method: Based on the structure of peptide P28R, additional peptides were identified that bind to P3028. The additional binders included deletions, truncations, and or amino acid substitutions of peptide P28R. Binding of peptides to P3028 was assayed using PEPSCAN technology. PEPSCAN technology, or “rampo” assays are biochemical binding assays, details of which are provided below:
A peptide microarray screening technology was used to measure binding of P28R (SEQ ID NO: 2) and variants of P28R to P3028 (SEQ ID NO: 185). In this technology libraries of synthetic peptides are synthesized and covalently linked onto polypropylene microarray chips. The linear peptides were synthesized onto credit-card format polypropylene cards (455 peptide formats/card) as described by (Timmerman et al., 2004) using standard Fmoc-chemistry using hexamethylenediamine (HMDA) as linker and deprotection using trifluoroacetic acid (TFA) with scavengers.
The binding of His-tagged P3028 to each peptide on the card was tested in an ELISA assay. The 455-well credit card format polypropylene cards containing the covalently linked peptides were incubated with His-tagged P3028 peptide (PGE73) solution consisting of 0.5 μg/mL diluted in blocking solution (4% horse serum, 5% ovalbumin (w/v) in PBS/1% Tween). After washing, the peptides were incubated with a monoclonal mouse anti-His-tag antibody (Novagen®, 70796-3, diluted 1/1000 in the incubation buffer) and subsequently after washing with a rabbit-anti-mouse antibody peroxidase (Rampo) conjugate (Southern Biotech®, 6175-05, diluted 1/1000), for one hour at 25° C. After washing, the peroxidase substrate 2,2′-azine-di-3-ethylbenzthiazoline sulfonate (ABTS) and 2 μL of 3% H2O2 were added. The binding capacity of the mAb was measured as a color development at 405 nm (optical density, OD405). The color development was quantified with a charge-coupled device (CCD)—camera and an image processing system.
The OD405-values obtained by a CCD-camera was considered as raw data values (“rampo values,” “rampo units,” or “rampo scores”). The values mostly ranged from 0 to 3000, a log scale similar to 1 to 3 of a standard 96-well plate ELISA-reader. First the CCD-camera made a picture of the card before peroxidase coloring and then again a picture after the peroxidase coloring. […] These values were copied into an excel file and labeled as a raw data file. One follow-up manipulation was allowed. Sometimes a well can contain an air-bubble resulting in a false-positive value. If manual inspection of the cards detect an air-bubble the value are set to 0 for that well.
A library of peptides tested for binding to peptide P3028 included all substitutions for each position of the peptide P28R (SEQ ID NO: 2) (i.e., 19 substitutions for each position). The results of the binding experiments are shown in FIGS. 27, 28, 29 and 30 and Table 5.1. […] P28R had rampo values ranging between 262 and 460 with a mean value of 370. […] In addition, M and S in position 7 (SEQ ID NOs: 9 and 10, respectively), and Q and M in position 11 (SEQ ID NOs: 15 and 16, respectively) all have rampo values over 700.
For each position of P28R, the rampo scores of the group of 19 different peptides containing an L-amino acid substitution were compared to the rampo score of a control sample P28R peptide (SEQ ID NO: 2) for that group. Single-amino acid substitutions having a rampo score greater than or substantially equivalent to P28R were identified. As used herein, a rampo score “substantially equivalent to P28R” is a rampo score that is at least 98% of the rampo score of P28R. Thus, variants of P28R having equivalent or better binding to P3028 were identified.

Substance	rampo score / affinity to P3028 compared with P28R
KKLDTFFVKLSFTER [SEQ ID NO: 68]	comparable to, or higher than peptide P28R
KKLDTFGVKLSLFTER [SEQ ID NO: 96]	comparable to P28R
KKLDTFFVKLGLFTER [SEQ ID NO: 99]	comparable to P28R
KKLTFFVKLSLFTER [SEQ ID NO: 64]	comparable to, or higher than peptide P28R
FVKL [SEQ ID NO: 63]	comparable rampo score
KKLDGFFVKLSLFTER [SEQ ID NO: 95]	comparable to P28R
KKLDTFVKLSLFTER [SEQ ID NO: 65]	comparable to, or higher than peptide P28R
KKLDTFFVKLSLFTE [SEQ ID NO: 34]	retained a high affinity
KKFFVKLSLFTER [SEQ ID NO: 76]	comparable to, or higher than peptide P28R
KKGDTFFVKLSLFTER [SEQ ID NO: 287]	comparable to P28R
KKLDTFFVGLSLFTER [SEQ ID NO: 98]	comparable to P28R

Tested on: PBMCs
Test: IL-2 induced proliferation of PBMCs, 3H-thymidine incorporation (human ex vivo model)
Assay type: cell-based
Conditions: PBMCs from healthy control samples, 7 days, 3H-thymidine
Method: 100 μl of RPMI1640 supplemented with 200 IU/ml penicillin, […] streptomycin, 4 mM L-glutamine (all from Sigma® Chemical Co. MO, US) and 20% heat-inactivated human serum (autologous or from cancer patients) were added to uncoated, HSA or HSA/IgG coated tissue culture microtiter plates. PBMC, isolated from healthy individuals or patients with metastatic renal cell carcinoma, were diluted in RPMI/2% HSA at a concentration of 5×10^5/ml and 100 μl were added to the microtiter wells. Interleukin-2 (IL-2, Proleukin®, Chiron®, NL), at a final concentration of 120 IU/well, was added to some wells. Cells were cultured for 7 days in a humidified, 5% CO2-atmosphere at 37° C. Proliferation was assayed by incorporation of 1.6 μCi/well of [^3H]-thymidine (Amersham® Int., UK) during the last 18 hrs. Mean values of dpm (disintegrations per minute) of triplicates were used for the calculations.
Cultures for IL-2 induced proliferation was set up with PBMC from healthy donors and autologous serum as described above with the exception that PBMC were first pre-incubated for 30 min at room temperature with the indicated albumin peptides at a concentration of 10 μg/ml.
Round-bottomed, 96-well tissue culture plates (Costar®, Corning® Inc. NY, US) were pre-coated with HSA only or HSA and pooled human IgG for intravenous injection (Gammagard®, Baxter AS, DK) as follows; HSA was diluted in RPMI1640 without supplements to a concentration of 10 mg/ml. A mixture of 1 mg/ml IgG in a solution of 9 mg/ml HSA in RPMI (HSA/IgG) was also prepared. 200 μl of HSA or HSA/IgG were then added to each well of the plate. The plates were incubated at 4° C. for 30 minutes after which the wells were washed twice with 200 μl of RPMI1640. The coated plates were used immediately. 100 μl of RPMI1640 supplemented with 200 IU/ml penicillin, […] streptomycin, 4 mM L-glutamine (all from Sigma® Chemical Co. MO, US) and 20% heat-inactivated human serum (autologous) were added to the HSA or HSA/IgG coated tissue culture microtiter wells. PBMC, isolated from healthy individuals, were diluted in RPMI/2% HSA and peptides were added directly to the cell suspension at a concentration of 10 μg/ml. One hundred μl of this cell suspension (5×10^4 lymphocytes) was then added per well providing a final concentration of 5 μg/ml peptide per well. IL-2 (Proleukin®, Chiron®, NL), at a final concentration of 120 IU/well, was added to the wells. Cells were cultured for 7 days in a humidified, 5% CO2-atmosphere at 37° C. Proliferation was assayed by incorporation of 1.6 μCi/well of [^3H]-thymidine (Amersham® Int., UK) during the last 18 hrs. Mean values of dpm (disintegrations per minute) of triplicates were used for the calculations.
The model included PBMCs isolated from venous blood samples from healthy blood donors (control samples) or cancer patients. One hundred pI of culture medium (RPMI 1640 Dutch's modification (Gibco®, InVitrogenAB®, Stockholm, Sweden) supplemented with 200 IV/ml penicillin, 200 ug/ml streptomycin, 4 mM L-glutamine (all from Sigma® Chemical Co. MO, US) and 20% heat-inactivated human serum) were added to roundbottomed, 96-well tissue culture plates (Costar®, Corning® Inc. NY, US). […] Control sample wells without IL-2 was set up in parallel. […]
The effect of different peptides on IL-2 induced proliferation was analyzed in the human ex vivo model, using PBMCs from healthy control samples. […] Proliferation was measured as incorporation of ^3H-thymidine during the final 18 hours. […]

Substance	inhibition of IL-2 induced proliferation
KVPQVSTPTLVEVSR (listed as Homo sapiens) [P3029]	none
